Test results reported in paper doi:10.1101/2023.01.17.524225 (bioRxiv, 2023).
Primed or numbered codes have the meaning given here. No end group written: not given here. FITC′ = not defined here

Target: T1, GID4 (aa 116-300) (human, UniProt Q8IVV7 116-300)
T1 sequence: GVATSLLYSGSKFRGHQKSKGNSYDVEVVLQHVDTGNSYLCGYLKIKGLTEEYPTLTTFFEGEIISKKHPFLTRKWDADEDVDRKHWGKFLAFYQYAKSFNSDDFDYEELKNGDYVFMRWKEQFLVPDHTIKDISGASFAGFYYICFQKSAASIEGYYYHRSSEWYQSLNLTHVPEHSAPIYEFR
Assay: fluorescence polarisation

PGLWKS-{FITC′} [C-terminally FITC-labelled PGLWKS peptide]
binding result: binds
